Data published in US20230416364A1 (Bristol-Myers Squibb, published 2023).

B1: anti-mPD-1 mAb 4H2 fused to mCD25 variant a (full-length mCD25 ECD) (other)
heavy: QVQLKESGPGLVQPSQTLSLTCTVSGFSLTSYNVHWVRQPPGKGLEWMGGMRYNEDTSYNSALKSRLSISRDTSKNQVFLKMNSLQTDDTGTYYCTRDAVYGGYGGWFAYWGQGTLVTVSSAKTTPPSVYPLAPGSAAQTNSMVTLGCLVKGYFPEPVTVTWNSGSLSSGVHTFPAVLESDLYTLSSSVTVPSSTWPSETVTCNVAHPASSTKVDKKIVPRDCGCKPCICTVPEVSSVFIFPPKPKDVLTITLTPKVTCVVVAISKDDPEVQFSWFVDDVEVHTAQTQPREEQFNSTFRSVSELPIMHQDWLNGKEFKCRVNSAAFPAPIEKTISKTKGRPKAPQVYTIPPPKKQMAKDKVSLTCMITDFFPEDITVEWQWNGQPAENYKNTQPIMKTDGSYFVYSKLNVQKSNWEAGNTFTCSVLHEGLHNHHTEKSLSHSPGGGGSGGGGSGGGGSELCLYDPPEVPNATFKALSYKNGTILNCECKRGFRRLKELVYMRCLGNSWSSNCQCTSNSHDKSRKQVTAQLEHQKEQQTTTDMQKPTQSMHQENLTGHCREPPPWKHEDSKRIYHFVEGQSVHYECIPGYKALQRGPAISICKMKCGKTGWTQPQLTCVDEREHHRFLASEESQGSRNSSPESETSCPITTTDFPQPTETTAMTETFVLTMEYK
light: DTVLTQSPALAVSLGQRVTISCKASETVSSSMYSYIHWYQQKPGQQPKLLIYRASNLESGVPARFSGSGSGTDFTLTIDPVEADDVATYFCQQSWNPWTFGGGTKLELKRADAAPTVSIFPPSSEQLTSGGASVVCFLNNFYPKDINVKWKIDGSERQNGVLNSWTDQDSKDSTYSMSSTLTLTKDEYERHNSYTCEATHKTSTSPIVKSFNRNEC
notes: also called 4H2-mCD25 variant a; mPD1-mCD25 variant a
B2: anti-mPD-1 mAb 4H2 fused to mCD25 variant b (other)
heavy: QVQLKESGPGLVQPSQTLSLTCTVSGFSLTSYNVHWVRQPPGKGLEWMGGMRYNEDTSYNSALKSRLSISRDTSKNQVFLKMNSLQTDDTGTYYCTRDAVYGGYGGWFAYWGQGTLVTVSSAKTTPPSVYPLAPGSAAQTNSMVTLGCLVKGYFPEPVTVTWNSGSLSSGVHTFPAVLESDLYTLSSSVTVPSSTWPSETVTCNVAHPASSTKVDKKIVPRDCGCKPCICTVPEVSSVFIFPPKPKDVLTITLTPKVTCVVVAISKDDPEVQFSWFVDDVEVHTAQTQPREEQFNSTFRSVSELPIMHQDWLNGKEFKCRVNSAAFPAPIEKTISKTKGRPKAPQVYTIPPPKKQMAKDKVSLTCMITDFFPEDITVEWQWNGQPAENYKNTQPIMKTDGSYFVYSKLNVQKSNWEAGNTFTCSVLHEGLHNHHTEKSLSHSPGGGGSGGGGSGGGGSELCLYDPPEVPNATFKALSYKNGTILNCECKRGFRRLKELVYMRCLGNSWSSNCQCTSNSHDKSRKQVTAQLEHQKEQQTTTDMQKPTQSMHQENLTGHCREPPPWKHEDSKRIYHFVEGQSVHYECIPGYKALQRGPAISICKMKCGKTGWTQPQLTCVDEREHHRFLASEESQGSRNSSPESETSCPITTTDFPQP
light: DTVLTQSPALAVSLGQRVTISCKASETVSSSMYSYIHWYQQKPGQQPKLLIYRASNLESGVPARFSGSGSGTDFTLTIDPVEADDVATYFCQQSWNPWTFGGGTKLELKRADAAPTVSIFPPSSEQLTSGGASVVCFLNNFYPKDINVKWKIDGSERQNGVLNSWTDQDSKDSTYSMSSTLTLTKDEYERHNSYTCEATHKTSTSPIVKSFNRNEC
notes: also called 4H2-mCD25 variant b; mPD1-mCD25 variant b
B3: mouse IL-2 (ligand, UniProt P04351 21-169, looked up)
chain: APTSSSTSSSTAEAQQQQQQQQQQQQHLEQLLMDLQELLSRMENYRNLKLPRMLTFKFYLPKQATELKDLQCLEDELGPLRHVLDLTQSKSFQLEDAENFISNIRVTVVKLKGSDNTFECQFDDESATVVDFLRRWIAFCQSIISTSPQ

Tests used:
[1] = molecular target: B3; experiment: SPR, Biacore T200, 37° C., fusion captured by anti-mouse IgG on CM4 chip, mIL-2 as analyte
Method: Truncations of mCD25 are presented at FIG. 3A.
Unless otherwise indicated, binding kinetics were determined with a BIACORE® SPR surface plasmon resonance spectrometer (Biacore AB, Uppsala, Sweden). […] The assay temperature was 37° C. and the running buffer was HEPES buffered saline pH 7.4 supplemented with 0.05% (v/v) Tween-20 and 1 g/L BSA. Purified mPD1−mCD25 variants were captured on a Biacore™ CM4 chip with immobilized anti-mouse IgG polyclonal capture antibody. […] Between cycles, the capture surface was regenerated for three minutes with 10 mM Glycine pH 1.7. Double-referenced sensorgrams were fitted to a 1:1 Langmuir binding model with mass transport to determine equilibrium dissociation constants (KD), as well as association (kₐ) and dissociation (kd) rate constants where appropriate.

[2] = molecular target: fully mCD25 modified anti-mPD-1 antibody 4H2, (4H2 mG1 D265A KK CD25.b)2; experiment: cell-based or functional assay
[3] = molecular target: hemi-mCD25 modified anti-mPD-1 antibody 4H2 (4H2 mG1 D265A KK CD25.b+4H2 mG1 D265A blank); experiment: cell-based or functional assay
[4] = molecular target: T1, human CD25 (IL-2R alpha) on HEK-Blue IL-2 reporter cells (human, UniProt P01589 22-272); experiment: cell-based or functional assay
T1 sequence: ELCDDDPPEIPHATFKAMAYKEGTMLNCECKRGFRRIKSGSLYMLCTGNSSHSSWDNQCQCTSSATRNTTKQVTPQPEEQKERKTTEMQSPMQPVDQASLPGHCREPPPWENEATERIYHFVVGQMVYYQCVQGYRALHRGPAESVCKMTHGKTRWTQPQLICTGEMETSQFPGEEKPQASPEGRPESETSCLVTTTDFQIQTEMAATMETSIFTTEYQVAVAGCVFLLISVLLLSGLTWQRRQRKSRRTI

Binder | Kd [1] | EC50 of mIL-2 (read off the curve) with 260 pM fusion; SEAP reporter (ABS620), CD25- mPD-1+ HEK-Blue IL-2 cells [2] | EC50 of mIL-2 (read off the curve) with 2.6 nM fusion; SEAP reporter (ABS620), CD25- mPD-1+ HEK-Blue IL-2 cells [2] | EC50 of mIL-2 (read off the curve) with 280 pM fusion; SEAP reporter (ABS620), CD25- mPD-1+ HEK-Blue IL-2 cells [3] | EC50 of mIL-2 (read off the curve) with 2.8 nM fusion; SEAP reporter (ABS620), CD25- mPD-1+ HEK-Blue IL-2 cells [3] | EC50 (read off the curve); SEAP reporter (ABS620), HEK-Blue IL-2 CD25+ cells [4]
B1 | 14 nM | – | – | – | – | –
B2 | 14 nM | – | – | – | – | –
B3 | – | ~200 pM | ~0.1 nM | ~300 pM | ~0.1 nM | ~0.05 nM
